Source: patent US20220177552A1 (CELLTRION, published 2022)
Positions count from the first letter of the chain named.

B1: Antibody 3 (fully human antibody) (antibody, V domains shown)
VH: QVQLQESGPGLVKPSETLSLTCTVSGGSINSRSYYWGWIRQPPGKGLEWIGSIYYSGSTYYNPSLKSRVTISVDTSKNQFSLKLRSVTAADTAVYYCARADREHVWGSYDGPGSPFDYWGQGTLVTVSS
VL: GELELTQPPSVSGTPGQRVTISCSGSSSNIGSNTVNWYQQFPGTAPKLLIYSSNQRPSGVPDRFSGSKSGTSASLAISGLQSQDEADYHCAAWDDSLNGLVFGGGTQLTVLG
B2: Antibody 4 (fully human antibody) (antibody, V domains shown)
VH: B1 VH with H104Y
VL: GELVLTQPPSVSEAPRQRVTISCSGSSSNIGNNAVNWYLQVPGTAPKLLIYGDHQRPSGVPDRFSGSKSGTSASLSISGLQSEDEADYYCAAWDDSLNGVVFGGGTKLTVLG
B3: Antibody 5 (fully human antibody) (antibody, V domains shown)
VH: EVQLVQSGAEVKKPGSSVKVSCKASGGTFSSYAISWVRQAPGQGLEWMGRIIPIFGIAKYAQKFQGRVTITADRSTSTAYMELSSLRSEDTAVYYCVTRSGDYSGSSGLAFDIWGQGTMVTVSS
VL: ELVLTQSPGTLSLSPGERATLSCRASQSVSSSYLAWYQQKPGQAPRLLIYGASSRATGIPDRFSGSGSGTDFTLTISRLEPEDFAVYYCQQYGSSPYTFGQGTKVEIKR
B4: Antibody 1 (fully human antibody) (antibody, V domains shown)
VH: QVQLVQSGAEVKKPGSSVKVSCKASGGTFSSYVISWVRQAPGQGLEWVGRIIPIFGTVKYAQKFQGRVTITADKSTSTAYMELSSLRSEDTAVYYCARDLPGDSRDGYNYDAFDIWGQGTLVTVSL
VL: GELELTQPPSVSAAPGQKVTISCSGSSSNIGNNYVSWYQQLPGTAPKLLIYDNNKRPSGIPDRFSGSKSGTSATLGITGLQTGDEADYYCGTWDSSLNAGVFGGGTELTVLG
B5: Antibody 2 (fully human antibody) (antibody, V domains shown)
VH: B4 VH with Q1E, V33A, V48M, T57I, V58A, L121M, L126S
VL: GELVLTQPPSVSAAPGQKVTISCSGSSSNIGNNFVSWYQQLPGTAPKLLIYDNDKRPSGIPDRFSGSKSGTSATLGITGLQTGDEADYYCATWDRSLSVELFGGGTKVTVLG

Tests used:
Assay in all cases: cell-based or functional assay
[1] = biological target: S protein of Korean isolate virus (MERS-CoV/Korea/KNIH/002_05_2015) (MERS-CoV, Korean isolate …)
[2] = biological target: S protein of Saudi isolate virus (MERS/HCoV/KSA/EMC/2012) (MERS-CoV, Saudi isolate …)
[3] = biological target: S protein of Jordan isolate virus (MERS-HCoV/Jordan/01) (MERS-CoV, Jordan isolate …)

Binder | IC50, PRNT, Korean isolate virus, Second experiment [1] | Neutralizing activity against Saudi virus (MERS-CoV_KSA/EMC/2012) IC50 [2] | Neutralizing activity against Jordan virus (MERS-HCoV/Jordan/01) IC50 [3] | IC50, PRNT, Korean isolate virus, First experiment [1]
B1 | 0.0032 mg/L | 0.13 mg/L | 0.11 mg/L | 
B2 | 0.00165 mg/L | 0.06 mg/L | 0.05 mg/L | 
B3 | 0.00025 mg/L | 0.06 mg/L | 0.09 mg/L | 
B4 |  | 0.44 mg/L | 0.11 mg/L | 0.0004 mg/L
B5 |  | 0.09 mg/L | 0.06 mg/L | 0.0009 mg/L
